This note sets out measurements from publication PMC9499513 (Proceedings of the National Academy of Sciences of the …, 2022).

In this assay the target is histone H4 (X. laevis, UniProt P62799 1-103). In words: cryo-EM structure.

B1: IMPORTIN-4 (natural protein)
chain: MESAGLEQLLRELLLPDTERIRRATEQLQIVLRAPAALPALCDLLASAADPQIRQFAAVLTRRRLNTRWRRLAAEQRESLKSLILTALQRETEHCVSLSLAQLSATIFRKEGLEAWPQLLQLLQHSTHSPHSPEREMGLLLLSVVVTSRPEAFQPHHRELLRLLNETLGEVGSPGLLFYSLRTLTTMAPYLSTEDVPLARMLVPKLIMAMQTLIPIDEAKACEALEALDELLESEVPVITPYLSEVLTFCLEVARNVALGNAIRIRILCCLTFLVKVKSKALLKNRLLPPLLHTLFPIVAAEPPPGQLDPEDQDSEEEELEIELMGETPKHFAVQVVDMLALHLPPEKLCPQLMPMLEEALRSESPYQRKAGLLVLAVLSDGAGDHIRQRLLPPLLQIVCKGLEDPSQVVRNAALFALGQFSENLQPHISSYSREVMPLLLAYLKSVPLGHTHHLAKACYALENFVENLGPKVQPYLPELMECMLQLLRNPSSPRAKELAVSALGAIATAAQASLLPYFPAIMEHLREFLLTGREDLQPVQIQSLETLGVLARAVGEPMRPLAEECCQLGLGLCDQVDDPDLRRCTYSLFAALSGLMGEGLAPHLEQITTLMLLSLRSTEGIVPQYDGSSSFLLFDDESDGEEEEELMDEDVEEEDDSEISGYSVENAFFDEKEDTCAAVGEISVNTSVAFLPYMESVFEEVFKLLECPHLNVRKAAHEALGQFCCALHKACQSCPSEPNTAALQAALARVVPSYMQAVNRERERQVVMAVLEALTGVLRSCGTLTLKPPGRLAELCGVLKAVLQRKTACQDTDEEEEEEDDDQAEYDAMLLEHAGEAIPALAAAAGGDSFAPFFAGFLPLLVCKTKQGCTVAEKSFAVGTLAETIQGLGAASAQFVSRLLPVLLSTAQEADPEVRSNAIFGMGVLAEHGGHPAQEHFPKLLGLLFPLLARERHDRVRDNICGALARLLMASPTRKPEPQVLAALLHALPLKEDLEEWVTIGRLFSFLYQSSPDQVIDVAPELLRICSLILADNKIPPDTKAALLLLLTFLAKQHTDSFQAALGSLPVDKAQELQAVLGLS
Consider B1, for which the binding result is recorded as “binds”.
